Test results as given in article PMC5013986 (RNA Biology, 2016).
Like-named read-outs stand apart in the source and are kept apart here. Values belong to the binder of their own block, whether it stands above or below them.

B2: Strep-tagged GapA lacking SR1P (enzyme, B. subtilis, UniProt P09124 1-335, looked up)
chain: MAVKVGINGFGRIGRNVFRAALNNPEVEVVAVNDLTDANMLAHLLQYDSVHGKLDAEVSVDGNNLVVNGKTIEVSAERDPAKLSWGKQGVEIVVESTGFFTKRADAAKHLEAGAKKVIISAPANEEDITIVMGVNEDKYDAANHDVISNASCTTNCLAPFAKVLNDKFGIKRGMMTTVHSYTNDQQILDLPHKDYRRARAAAENIIPTSTGAAKAVSLVLPELKGKLNGGAMRVPTPNVSLVDLVAELNQEVTAEEVNAALKEAAEGDLKGILGYSEEPLVSGDYNGNKNSSTIDALSTMVMEGSMVKVISWYDNESGYSNRVVDLAAYIAKKGL
B4: GapA_(Strep)/SR1P (Strep-tagged GapA carrying SR1P) (complex)
chain 1: MAVKVGINGFGRIGRNVFRAALNNPEVEVVAVNDLTDANMLAHLLQYDSVHGKLDAEVSVDGNNLVVNGKTIEVSAERDPAKLSWGKQGVEIVVESTGFFTKRADAAKHLEAGAKKVIISAPANEEDITIVMGVNEDKYDAANHDVISNASCTTNCLAPFAKVLNDKFGIKRGMMTTVHSYTNDQQILDLPHKDYRRARAAAENIIPTSTGAAKAVSLVLPELKGKLNGGAMRVPTPNVSLVDLVAELNQEVTAEEVNAALKEAAEGDLKGILGYSEEPLVSGDYNGNKNSSTIDALSTMVMEGSMVKVISWYDNESGYSNRVVDLAAYIAKKGL
chain 2: MGTIVCQDCNEAIHYFEDEKVTTLYGTCCGQCQCPVDEE

How the values were obtained:
[1] = target: B2; experiment: pull-down
[2] = target: B4; experiment: pull-down
His-tagged RNase J1 [3] = target: T1, His-tagged RNase J1 (B. subtilis, UniProt Q45493 1-555); experiment: far-Western, overlay or dot blot
T1 sequence (Q45493 whole entry): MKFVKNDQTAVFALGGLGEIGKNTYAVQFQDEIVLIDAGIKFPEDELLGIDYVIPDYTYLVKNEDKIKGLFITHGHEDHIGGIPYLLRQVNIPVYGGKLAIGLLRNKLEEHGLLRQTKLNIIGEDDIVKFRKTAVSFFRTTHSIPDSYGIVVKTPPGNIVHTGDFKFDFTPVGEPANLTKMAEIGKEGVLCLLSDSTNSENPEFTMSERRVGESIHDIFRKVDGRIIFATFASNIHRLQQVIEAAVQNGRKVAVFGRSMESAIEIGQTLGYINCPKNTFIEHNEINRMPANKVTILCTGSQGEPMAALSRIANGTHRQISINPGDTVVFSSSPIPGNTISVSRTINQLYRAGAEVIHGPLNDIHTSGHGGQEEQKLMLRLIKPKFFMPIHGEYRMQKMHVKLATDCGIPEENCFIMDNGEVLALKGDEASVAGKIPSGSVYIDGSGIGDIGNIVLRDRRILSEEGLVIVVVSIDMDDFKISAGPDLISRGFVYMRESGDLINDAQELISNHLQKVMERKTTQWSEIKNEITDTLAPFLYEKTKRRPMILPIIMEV

His-tagged RNase J1 [4] = target: T1, His-tagged RNase J1; experiment: far-Western, overlay or dot blot; remark: listed apart in the source

Binder: B2
- binding result (His-tagged RNase J1 [3]): binds

Binder: B4
- binding result (His-tagged RNase J1 [4]): binds

Results, then the binder that gave them:

- GapA-RNase J1 ratio [1]: ~200 GapA per RNase J1
- GapA/SR1P-RNase J1 ratio [2]: 80 GapA/SR1P per RNase J1
B1: RNase J1 (enzyme)
chain: not shown

- binding result (His-tagged RNase J1 [3]): binds
B3: untagged GapA (enzyme, UniProt P09124 1-335, looked up)
chain: MAVKVGINGFGRIGRNVFRAALNNPEVEVVAVNDLTDANMLAHLLQYDSVHGKLDAEVSVDGNNLVVNGKTIEVSAERDPAKLSWGKQGVEIVVESTGFFTKRADAAKHLEAGAKKVIISAPANEEDITIVMGVNEDKYDAANHDVISNASCTTNCLAPFAKVLNDKFGIKRGMMTTVHSYTNDQQILDLPHKDYRRARAAAENIIPTSTGAAKAVSLVLPELKGKLNGGAMRVPTPNVSLVDLVAELNQEVTAEEVNAALKEAAEGDLKGILGYSEEPLVSGDYNGNKNSSTIDALSTMVMEGSMVKVISWYDNESGYSNRVVDLAAYIAKKGL
